Laboratory results reported in paper PMC4587843, “Vascular Smooth Muscle Cells Stimulate Platelets and Facilitate Thrombus Formation through Platelet CLEC-2: Implications in Atherothrombosis” (PLoS ONE, 2015).
One block for each molecule: values may come before it.

Assays:
[1] = target: native CLEC-2 on the surface of murine platelets (mouse (endogenous in platelets)) (UniProt Q9JL99)
[2] = target: T1, recombinant extracellular domain of human CLEC-2 expressed as a dimeric rabbit immunoglobulin Fc domain … (human, UniProt Q9P126 55-229); test: SPR; hCLEC-2-rFc2 and control rFc2 amine-coupled to a CM5 chip, Biacore X; S100A13 in modified Tyrode's buffer with 1 mM CaCl2 perfused at 20 uL/min, 25 C; control surface subtracted; Kd by BIAevaluation; conditions: both partners purified
T1 construct: CLEC-2, human, extracellular domain; also called hCLEC-2-rFc2; human CLEC-2-rabbit Fc2; source: recombinant, generated as described previously [2]
T1 sequence (Q9P126 55-229): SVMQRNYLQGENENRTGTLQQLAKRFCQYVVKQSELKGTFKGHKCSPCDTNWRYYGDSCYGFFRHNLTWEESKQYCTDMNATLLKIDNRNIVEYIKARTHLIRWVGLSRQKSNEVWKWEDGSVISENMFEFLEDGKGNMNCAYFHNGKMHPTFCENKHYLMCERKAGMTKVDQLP

Sequence of native CLEC-2 on the surface of murine platelets (mouse (endogenous in platelets)) (Q9JL99 whole entry, the tested form may be a part): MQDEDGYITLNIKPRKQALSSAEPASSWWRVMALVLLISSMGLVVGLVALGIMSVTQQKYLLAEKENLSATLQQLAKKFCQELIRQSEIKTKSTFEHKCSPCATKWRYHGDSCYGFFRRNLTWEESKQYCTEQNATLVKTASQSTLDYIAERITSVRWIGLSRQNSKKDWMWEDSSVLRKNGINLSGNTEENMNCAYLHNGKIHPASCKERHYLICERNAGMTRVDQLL

Molecule: rhodocytin (complex)
release of 5-HT or PDGF from washed murine WT platelets, percent of the total stored, maximum concentration of rhodocytin [1]: 60%

Kd [2]: 137 nM
B1: GST-tagged S100A13 recombinant protein (natural protein, UniProt Q99584 1-98, looked up)
chain: MAAEPLTELEESIETVVTTFFTFARQEGRKDSLSVNEFKELVTQQLPHLLKDVGSLDEKMKSLDVNQDSELKFNEYWRLIGELAKEIRKKKDLKIRKK
notes: S100A13; also called S100A13-GST; recombinant S100A13-GST; source: bought: CycLex Co., Ltd. (Japan)
